Assay results: US20200002710A1, “SYSTEMS AND METHODS FOR CONTROL OF GENE EXPRESSION” (TRUSTEES OF BOSTON UNIVERSITY, published 2020)
Substitutions are numbered along the chain they refer to.

Experiments:
[1] = tested on: 43-8 low affinity synTF + 3x syntrophin PDZ clamp (artificial); test: FP; details: nH 2.55; synTF titration with 3-PDZ clamp
[2] = molecular target: T1, 43-8 (ZF1) high affinity synTF (artificial); test: FP; fluorescence anisotropy competition; Zn2+, 25 C; details: tags: N-terminal MBP; C-terminal GS linker + syntrophin ligand S5 (VKESLV)
T1 chain: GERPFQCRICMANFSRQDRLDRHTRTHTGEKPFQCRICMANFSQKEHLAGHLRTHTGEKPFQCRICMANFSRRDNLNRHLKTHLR
Procedure: (§1) Sequences for both sets of DBM affinity variants are listed on the right. Residues mutated from the WT sequence are indicated by bold type.
(§2) All assays were conducted in 20 mM Tris, pH 7.5, 100 mM […], 50 μM ZnCl2 buffer at 25° C. Proteins, probes, and competitor oligos were added to a final volume of 300 μL. Probes were used at 10 nM in all experiments. For complex assembly experiments (FIG. 1C), indicated concentrations of MBP-ZF₄₃₋₈ harboring a VSKESLV* ligand (SEQ ID NO: 120) (see e.g., FIG. 5A-FIG. 5B, FIG. 7A-FIG. 7B) were titrated against 5 μM concentrations of clamp. Mixtures were allowed to equilibrate at 25° C. for 10 min in Costar black 96-well plates prior to reading. Fluorescence anisotropy (FA) measurements were made at 494 nm using a SpectraMax M5 (Molecular Devices) fluorescence plate reader. For all measurements, anisotropy (r) was calculated using the following equation, wherein I_{∥} and I_{⊥} are parallel and perpendicular fluorescence, respectively:
(§3) TF-DBM binding constants were measured in vitro by fluorescence anisotropy (FA). Recombinant proteins were purified and DBM oligos prepared as described herein. […] Affinities for the interaction were measured as a function of the increase in fluorescence anisotropy resulting from binding of the fusion to a fluorescently labeled (FITC) oligo probe (data not shown). Oligo probe binding to ZF affinity variants was measured. MBP-ZF was titrated against 10 nM oligo probe. […] Kd values were extracted by fitting data to a quadratic binding equation (data not shown). Competition binding experiments were performed to measure binding constants for DBM affinity variants.

[3] = molecular target: T2, 43-8 (ZF1) low affinity synTF (artificial, R-to-A backbone (low affinity allele, already in ref)); test: as above; details: tags: N-terminal MBP; C-terminal GS linker + syntrophin ligand S5 (VKESLV)
T2 chain: T1 chain with R3A
Procedure: as §1, §2, §3

[4] = molecular target: T1, 43-8 (ZF1) high affinity synTF; test: FP; fluorescence anisotropy; Zn2+, 25 C; details: tags: N-terminal MBP; C-terminal GS linker + syntrophin ligand S5 (VKESLV)
Procedure: as §2
as §3, with “variants. […] Competitor oligo Kₐ values were extracted by fitting data (converted to fraction probe bound) to a cubic equation describing competitive binding (see e.g., FIG. 6). Sequences for both sets of DBM affinity variants are listed on the right of FIG. 6.” for “variants.”

[5] = molecular target: T2, 43-8 (ZF1) low affinity synTF; test: FP; fluorescence anisotropy; Zn2+, 25 C; details: tags: N-terminal MBP; C-terminal GS linker + syntrophin ligand S5 (VKESLV)
Procedure: as §2
as §3, with “variants. […] Competitor oligo Kₐ values were extracted by fitting data (converted to fraction probe bound) to a cubic equation describing competitive binding (see e.g., FIG. 6). Sequences for both sets of DBM affinity variants are listed on the right of FIG. 6.” for “variants.”

[6] = molecular target: T3, 42-10 (ZF2) low affinity synTF (artificial, R-to-A backbone (low affinity allele, already in ref)); test: FP; fluorescence anisotropy competition; Zn2+, 25 C; details: tags: N-terminal MBP; C-terminal GS linker + syntrophin ligand S5 (VKESLV)
T3 chain: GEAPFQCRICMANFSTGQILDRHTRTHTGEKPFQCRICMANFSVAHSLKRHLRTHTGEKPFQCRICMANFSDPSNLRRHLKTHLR
Procedure: as §1, §2, §3

[7] = molecular target: T2, 43-8 (ZF1) low affinity synTF; test: FP; no clamp; nH 1.07; details: tags: N-terminal MBP; C-terminal GS linker + syntrophin ligand S5 (VKESLV); label: fluorescein on bottom-strand thymidine
Procedure: as §2, with “respectively: […]” for “respectively:”

[8] = molecular target: T4, 42-10 (ZF2) high affinity synTF (artificial); test: FP; fluorescence anisotropy competition; 20 mM Tris pH 7.5, 100 mM NaCl, 50 uM ZnCl2, 25 C; details: tags: N-terminal MBP; C-terminal GS linker + syntrophin ligand S5 (VKESLV)
T4 chain: T3 chain with A3R
Procedure: as §1, §2
TF-DBM binding constants were measured in vitro by fluorescence anisotropy (FA). Recombinant proteins were purified and DBM oligos prepared as described herein. […] Affinities for the interaction were measured as a function of the increase in fluorescence anisotropy resulting from binding of the fusion to a fluorescently labeled (FITC) oligo probe (data not shown). Oligo probe binding to ZF affinity variants was measured. […]

[9] = molecular target: T5, MBP-syn. (MBP fusion of the syntrophin PDZ domain) (UniProt Q28626 83-177); test: thermodynamic model fit; model-fitted
T5 chain: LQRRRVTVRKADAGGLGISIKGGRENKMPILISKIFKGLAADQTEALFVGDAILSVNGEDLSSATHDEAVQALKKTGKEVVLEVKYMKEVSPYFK

[10] = molecular target: T6, MBP-syn. (MBP fusion of the syntrophin PDZ domain) (Oryctolagus cuniculus (Rabbit), UniProt Q28626 83-177); test: fluorescence anisotropy competition; 43-8 synTF-ligand fusion titrated against MBP-syntrophin PDZ and FITC-VKESLV probe
T6 construct: Used as an MBP fusion in the PDZ-ligand anisotropy assays; also called MBP-PDZ; pCB378
T6 sequence: T5 chain
Procedure: (§4) Probe concentration was assessed by measuring Abs490. Competitor peptides were purified as MBP-ZF43-8 fusions (see e.g., FIG. 5A-FIG. 5B, FIG. 7A-FIG. 7B).
as §2
(§5) PDZ-ligand binding constants were measured in vitro by fluorescence anisotropy. Recombinant proteins were purified as described herein. […] Peptide probe binding to PDZ domain was measured. […] Kₐ values were extracted by fitting data to a quadratic binding equation (data not shown). Competition binding experiments were conducted to measure binding constants for ligand affinity variants. […] accompanying displacement of the probe by the competitor was measured, and competitor ligand Kd values were extracted by fitting data (converted to fraction probe bound) to a cubic equation describing competitive binding (see e.g., FIG. 7A).

[11] = molecular target: T7, MBP-erb. (MBP fusion of the erbin PDZ domain) (Mus musculus (Mouse), UniProt Q80TH2 1304-1387, limits assumed); test: fluorescence anisotropy competition; 43-8 synTF-ligand fusion titrated against MBP-erbin PDZ and FITC peptide probe
T7 construct: also called MBP-PDZ; pCB425
T7 chain: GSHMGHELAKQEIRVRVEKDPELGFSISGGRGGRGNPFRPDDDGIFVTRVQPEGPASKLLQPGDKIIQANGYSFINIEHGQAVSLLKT
Procedure: as §4, §2, §5

[12] = molecular target: T7, MBP-erb. (MBP fusion of the erbin PDZ …); test: fluorescence anisotropy competition (nb indicates no binding)
Procedure: as §4, §2, §5

[13] = molecular target: T6, MBP-syn. (MBP fusion of the syntrophin …); test: as above
Procedure: as §4, §2, §5

[14] = molecular target: T5, MBP-syn. (MBP fusion of the syntrophin …); test: fluorescence anisotropy competition; experimentally-measured

GAATTCGTCCTCACTCTTCGGTCCTCACTCTTCGGTCCTCACTCTGGATCC (double strand) [43-8 nc=3 probe]
EC50 [1]: 5.1 nM

B1: 43-8 DBM3 (dsDNA)
DNA 1: ATAGTGAGGAC
DNA 2: GTCCTCACTAT
Kd [2]: 42 nM | Kd [3]: 224 nM

B2: 43-8 DBM2 (dsDNA)
DNA 1: ACAGTGAGGAC
DNA 2: GTCCTCACTGT
Kd [2]: 30 nM | Kd [3]: 143 nM

B3: 43-8 DBM1 (dsDNA)
DNA 1: AGAGTGAGGAC
DNA 2: GTCCTCACTCT
Kd [4]: 6.5 nM | Kd [5]: 13.6 nM

B4: 42-10 DBM4 (dsDNA)
DNA 1: ACACGCTGCTC
DNA 2: GAGCAGCGTGT
Kd [6]: 67 nM

B5: 43-8 nc=2 probe (dsDNA)
DNA 1: GAATTCGTCCTCACTCTTCGGTCCTCACTCTGGATCC
DNA 2: GGATCCAGAGTGAGGACCGAAGAGTGAGGACGAATTC
EC50 [7]: 210 nM

B6: 42-10 DBM5 (dsDNA)
DNA 1: AGACGCTACTC
DNA 2: GAGTAGCGTCT
Kd [6]: 95 nM

B7: 42-10 DBM2 (dsDNA)
DNA 1: TGACGCTGCTT
DNA 2: AAGCAGCGTCA
Kd [6]: 5.2 nM | Kd [8]: 0.94 nM

B8: 42-10 DBM7 (dsDNA)
DNA 1: AGACTCTGCTC
DNA 2: GAGCAGAGTCT
Kd [6]: 415 nM

B9: 42-10 DBM3 (dsDNA)
DNA 1: AGACGGTGCTC
DNA 2: GAGCACCGTCT
Kd [6]: 32 nM

B10: 42-10 DBM6 (dsDNA)
DNA 1: AGACGCTGCTA
DNA 2: TAGCAGCGTCT
Kd [6]: 218 nM

B11: MBP-43-8(low)-syn. lig. (S4) (other, not shown: large carriers)
chain: GEAPFQCRICMANFSRQDRLDRHTRTHTGEKPFQCRICMANFSQKEHLAGHLRTHTGEKPFQCRICMANFSRRDNLNRHLKTHLRGSGSGIRETIV
notes: also called IRETIV; pCB384
Kd [9]: 400 nM | Kd [10]: 880 nM | Kd [11]: 3460 nM

B12: MBP-43-8(low)-syn. lig.(no bind) (other, not shown: large carriers; small tags and cut ends)
chain: B11 chain with I91V, R92K, T94A, I95A, V96A
notes: also called VKEAAA; nb
binding result [12]: no binding

B13: 43-8 synTF with appended erbin ligand E2 (WLKTWV) (other, not shown: large carriers)
chain: B11 chain with I91W, R92L, E93K, I95W
Kd [11]: 330 nM | binding result [13]: no binding

B14: MBP-43-8(low)-syn. lig. (S2) (other, not shown: large carriers)
chain: B11 chain with V96L
notes: also called IRETIL; pCB381
Kd [10]: 180 nM | binding result [12]: no binding

B15: MBP-43-8(low)-syn. lig. (S6) (other, not shown: large carriers)
chain: B11 chain with I91V, R92K, T94A, I95L
notes: also called VKEALV; pCB386
Kd [14]: 20300 nM | Kd [10]: 27300 nM | binding result [12]: no binding

B16: 43-8 synTF with appended erbin ligand E3 (PVDSWV) (other, not shown: large carriers)
chain: B11 chain with I91P, R92V, E93D, T94S, I95W
Kd [10]: 1570 nM | Kd [11]: 420 nM

B17: 43-8 synTF with appended erbin ligand E1 (WLVTWV) (other, not shown: large carriers)
chain: B11 chain with I91W, R92L, E93V, I95W
Kd [11]: 100 nM | binding result [13]: no binding

B18: MBP-43-8(low)-syn. lig. (S7) (other, not shown: large carriers)
chain: B11 chain with I91H, R92L, I95F, V96F
notes: also called HLETFF; pCB387
Kd [10]: 43200 nM | binding result [12]: no binding

B19: MBP-43-8(low)-syn. lig. (S5) (other, not shown: large carriers)
chain: B11 chain with I91V, R92K, T94S, I95L
notes: also called VKESLV; pCB385
Kd [9]: 2050 nM | Kd [10]: 1970 nM | Kd [11]: 5710 nM

B20: MBP-43-8(low)-syn. lig. (S3) (other, not shown: large carriers)
chain: B11 chain with E93W
notes: also called IRWTIV; pCB382
Kd [10]: 490 nM | Kd [11]: 1730 nM

B21: MBP-43-8(low)-syn. lig. (S1) (other, not shown: large carriers)
chain: B11 chain with V96I
notes: also called IRETII; pCB380
Kd [10]: 62 nM | binding result [12]: no binding
